Each block holds one binder with its values, some of them ahead of it.
What was measured:
Human EphA7 Fc fusion = target: T1, Human EphA7 Fc fusion (Human, UniProt Q15375 28-555, limits assumed); test: SPR
T1 construct: SPR; R&D Systems 6756-A7
T1 sequence (looked up): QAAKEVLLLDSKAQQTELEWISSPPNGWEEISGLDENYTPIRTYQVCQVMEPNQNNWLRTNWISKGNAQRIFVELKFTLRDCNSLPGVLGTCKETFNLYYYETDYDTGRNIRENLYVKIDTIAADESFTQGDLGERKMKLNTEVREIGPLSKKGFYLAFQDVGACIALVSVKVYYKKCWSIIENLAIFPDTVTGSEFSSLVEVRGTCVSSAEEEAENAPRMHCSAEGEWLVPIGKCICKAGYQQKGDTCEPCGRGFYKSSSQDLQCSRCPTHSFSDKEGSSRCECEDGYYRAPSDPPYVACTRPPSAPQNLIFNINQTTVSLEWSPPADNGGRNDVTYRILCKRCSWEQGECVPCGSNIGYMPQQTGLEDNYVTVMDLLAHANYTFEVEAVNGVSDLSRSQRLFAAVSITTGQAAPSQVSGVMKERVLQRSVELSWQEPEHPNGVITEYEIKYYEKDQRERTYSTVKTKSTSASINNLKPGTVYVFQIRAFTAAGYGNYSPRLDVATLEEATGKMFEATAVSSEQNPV

[1] = target: T2, Human EphA5, biotinylated (Human, UniProt P54756 25-573, limits assumed, 3.1 mol biotin/monomer); test: SPR
T2 construct: SPR; R&D Systems 3036-A5
T2 sequence (P54756 25-573 limits assumed): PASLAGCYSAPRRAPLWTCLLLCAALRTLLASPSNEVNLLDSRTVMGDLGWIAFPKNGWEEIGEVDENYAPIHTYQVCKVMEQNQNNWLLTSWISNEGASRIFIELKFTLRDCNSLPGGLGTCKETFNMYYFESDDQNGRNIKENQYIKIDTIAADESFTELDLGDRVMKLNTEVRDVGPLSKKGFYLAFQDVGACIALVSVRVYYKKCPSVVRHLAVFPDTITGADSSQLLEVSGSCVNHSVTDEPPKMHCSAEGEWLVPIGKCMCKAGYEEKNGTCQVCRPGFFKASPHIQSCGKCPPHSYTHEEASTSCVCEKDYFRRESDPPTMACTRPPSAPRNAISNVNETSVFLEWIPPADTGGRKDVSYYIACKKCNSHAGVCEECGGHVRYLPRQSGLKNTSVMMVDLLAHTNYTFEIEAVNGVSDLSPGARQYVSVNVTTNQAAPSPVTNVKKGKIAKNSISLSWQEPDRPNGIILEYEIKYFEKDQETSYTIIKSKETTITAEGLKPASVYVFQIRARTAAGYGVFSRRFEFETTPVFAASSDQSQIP

Human EphB4 Fc fusion = target: T3, Human EphB4 Fc fusion (Human, UniProt P54760 16-539); test: SPR
T3 construct: SPR; Sino Biologics 10235-H02H
T3 sequence (looked up): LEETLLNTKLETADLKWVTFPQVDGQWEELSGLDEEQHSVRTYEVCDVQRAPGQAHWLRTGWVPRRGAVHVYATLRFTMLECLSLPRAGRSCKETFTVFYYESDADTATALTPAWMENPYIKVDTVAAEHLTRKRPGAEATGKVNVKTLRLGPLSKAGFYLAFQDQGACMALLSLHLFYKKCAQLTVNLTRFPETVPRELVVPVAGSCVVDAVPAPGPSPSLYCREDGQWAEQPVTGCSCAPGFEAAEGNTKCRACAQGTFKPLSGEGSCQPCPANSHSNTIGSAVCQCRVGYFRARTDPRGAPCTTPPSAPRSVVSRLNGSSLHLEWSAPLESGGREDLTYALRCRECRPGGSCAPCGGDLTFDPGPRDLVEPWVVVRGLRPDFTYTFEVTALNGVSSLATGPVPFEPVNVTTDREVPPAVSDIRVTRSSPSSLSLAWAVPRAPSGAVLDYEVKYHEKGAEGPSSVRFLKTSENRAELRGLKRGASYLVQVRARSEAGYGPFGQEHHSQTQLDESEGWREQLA

Rat EphA3 Fc fusion = target: T4, Rat EphA3 Fc fusion (Rat, UniProt O08680 21-541); test: SPR
T4 construct: SPR; Sino Biologics 80465-R02H
T4 sequence (looked up): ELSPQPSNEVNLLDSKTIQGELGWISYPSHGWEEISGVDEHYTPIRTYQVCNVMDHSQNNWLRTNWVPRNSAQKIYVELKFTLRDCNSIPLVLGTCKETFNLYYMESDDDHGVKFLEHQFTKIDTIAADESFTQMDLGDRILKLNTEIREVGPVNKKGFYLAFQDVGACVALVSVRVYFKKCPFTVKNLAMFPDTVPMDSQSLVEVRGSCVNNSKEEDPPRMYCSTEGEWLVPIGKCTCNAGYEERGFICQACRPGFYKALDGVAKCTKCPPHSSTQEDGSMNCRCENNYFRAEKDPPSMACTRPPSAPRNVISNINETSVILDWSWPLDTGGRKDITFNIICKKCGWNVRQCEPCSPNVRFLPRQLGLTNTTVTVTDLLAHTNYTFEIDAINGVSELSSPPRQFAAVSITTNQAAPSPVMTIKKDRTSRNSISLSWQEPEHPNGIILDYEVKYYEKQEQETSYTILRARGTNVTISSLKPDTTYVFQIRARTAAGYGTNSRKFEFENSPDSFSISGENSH

Human EphA4 Fc fusion = target: T5, Human EphA4 Fc fusion (Human, UniProt P54764 20-547); test: SPR
T5 construct: SPR; Sino Biologics 11314-H03H
T5 sequence (P54764 20-547 limits assumed): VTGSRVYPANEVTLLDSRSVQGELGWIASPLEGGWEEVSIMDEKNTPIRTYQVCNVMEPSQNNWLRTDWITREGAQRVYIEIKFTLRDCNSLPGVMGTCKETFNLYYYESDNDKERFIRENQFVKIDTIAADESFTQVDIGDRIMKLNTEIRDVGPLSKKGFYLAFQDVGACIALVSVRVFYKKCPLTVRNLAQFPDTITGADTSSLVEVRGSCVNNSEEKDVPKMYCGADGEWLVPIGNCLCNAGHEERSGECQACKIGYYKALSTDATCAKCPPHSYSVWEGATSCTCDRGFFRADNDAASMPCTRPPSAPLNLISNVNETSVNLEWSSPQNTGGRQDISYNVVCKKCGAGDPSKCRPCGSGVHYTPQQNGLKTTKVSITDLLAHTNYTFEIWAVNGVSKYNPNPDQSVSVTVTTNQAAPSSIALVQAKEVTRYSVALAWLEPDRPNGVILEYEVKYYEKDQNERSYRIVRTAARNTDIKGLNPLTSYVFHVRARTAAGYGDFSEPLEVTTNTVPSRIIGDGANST

Human EphA1 Fc fusion = target: T6, Human EphA1 Fc fusion (Human, UniProt P21709 26-547); test: SPR
T6 construct: SPR; Sino Biologics 15789-H02H
T6 sequence (looked up): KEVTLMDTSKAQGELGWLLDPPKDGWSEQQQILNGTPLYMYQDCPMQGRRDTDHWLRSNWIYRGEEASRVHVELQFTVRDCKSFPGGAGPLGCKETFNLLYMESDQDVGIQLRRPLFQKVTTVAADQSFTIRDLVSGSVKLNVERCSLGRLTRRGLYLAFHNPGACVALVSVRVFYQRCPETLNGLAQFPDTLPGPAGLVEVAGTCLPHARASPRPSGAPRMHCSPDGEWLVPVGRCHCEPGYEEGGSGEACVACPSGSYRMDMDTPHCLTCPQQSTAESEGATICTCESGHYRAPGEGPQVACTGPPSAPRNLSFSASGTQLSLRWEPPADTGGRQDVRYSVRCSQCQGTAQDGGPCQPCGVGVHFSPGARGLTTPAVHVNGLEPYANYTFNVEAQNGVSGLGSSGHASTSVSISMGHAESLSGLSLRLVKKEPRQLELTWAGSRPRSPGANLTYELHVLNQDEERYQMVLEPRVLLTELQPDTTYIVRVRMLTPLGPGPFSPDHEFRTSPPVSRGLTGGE

Human EphA5 = target: T7, Human EphA5 (Human, UniProt P54756 25-573, limits assumed, biotinylated, 3.1 mol biotin/monomer); test: SPR, biotinylated protein on streptavidin
T7 construct: Bought protein; also called R&D Systems 3036-A5
T7 sequence (P54756 25-573 limits assumed): as the sequence (P54756 25-573 limits assumed) above

Mouse EphA2 Fc fusion = target: T8, Mouse EphA2 Fc fusion (Mouse, UniProt Q03145 26-535, limits assumed); test: SPR, Fc-tagged EphA2 captured by anti-human IgG
T8 construct: Bought Fc fusion; also called R&D Systems 639-A2; not shown: Fc of the bought fusion
T8 sequence (Q03145 26-535 limits assumed): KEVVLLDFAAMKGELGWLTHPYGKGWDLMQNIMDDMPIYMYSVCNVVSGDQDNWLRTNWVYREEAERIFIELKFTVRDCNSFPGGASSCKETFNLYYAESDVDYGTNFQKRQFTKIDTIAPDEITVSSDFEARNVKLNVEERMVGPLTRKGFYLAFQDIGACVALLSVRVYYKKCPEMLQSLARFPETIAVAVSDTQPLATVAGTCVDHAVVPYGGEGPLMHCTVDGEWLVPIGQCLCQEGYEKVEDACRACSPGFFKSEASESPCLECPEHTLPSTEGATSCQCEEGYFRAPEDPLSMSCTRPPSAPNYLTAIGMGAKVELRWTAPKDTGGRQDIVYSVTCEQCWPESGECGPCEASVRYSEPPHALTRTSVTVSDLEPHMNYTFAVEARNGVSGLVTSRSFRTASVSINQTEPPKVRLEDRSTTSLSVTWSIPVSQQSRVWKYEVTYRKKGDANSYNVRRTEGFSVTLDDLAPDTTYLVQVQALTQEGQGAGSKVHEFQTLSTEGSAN

B1: BCY6082 (peptide)
peptide: AXDCPLVNPLCLHPGWTC
modifications: not fully specified; as BCY6014 (N-terminal (β-Ala)-Sar10; HArg; TATA scaffold on the 3 Cys) + DM1-SS(SO3H)-
notes: Bicycle drug conjugate (BDC)
binding result (Human EphA7 Fc fusion): no binding
binding result [1]: no binding
binding result (Human EphB4 Fc fusion): no binding
binding result (Rat EphA3 Fc fusion): no binding
binding result (Human EphA4 Fc fusion): no binding
binding result (Human EphA1 Fc fusion): no binding

B4: BCY6033 (peptide)
peptide: AXDCPLVNPLCLHPGWTC
modifications: not fully specified; as BCY6014 (N-terminal (β-Ala)-Sar10; HArg; TATA scaffold on the 3 Cys) + ValCit-MMAE
notes: Bicycle drug conjugate (BDC)
binding result (Human EphA7 Fc fusion): no binding
binding result [1]: no binding
binding result (Human EphB4 Fc fusion): no binding
binding result (Rat EphA3 Fc fusion): no binding
binding result (Human EphA4 Fc fusion): no binding
binding result (Human EphA1 Fc fusion): no binding

Continued, values first:

binding result (Human EphA5): no binding (tested: 25 µM)
Kd (Mouse EphA2 Fc fusion): 18.3 nM
t1/2 (Mouse EphA2 Fc fusion): 1.9 min
B2: BCY6082 (peptide)
peptide: AXDCPLVNPLCLHPGWTC
modifications: not fully specified; N-terminal (β-Ala)-Sar10 spacer precedes SEQ ID NO: 11; HArg (homoarginine) at residue 2 of SEQ ID NO: 11; three Cys cyclised on the TATA scaffold; DM1-SS(SO3H)- (DM1-SO3H-SPDB) on the N-terminal amine

binding result (Human EphA5): no binding (tested: 25 µM)
Kd (Mouse EphA2 Fc fusion): 21.8 nM
t1/2 (Mouse EphA2 Fc fusion): 1.8 min
B3: BCY6033 (peptide)
peptide: AXDCPLVNPLCLHPGWTC
modifications: not fully specified; N-terminal (β-Ala)-Sar10 spacer precedes SEQ ID NO: 11; HArg (homoarginine) at residue 2 of SEQ ID NO: 11; three Cys cyclised on the TATA scaffold; ValCit-MMAE (MMAE-PABC-Cit-Val-glutarate) on the N-terminal amine

Reference: patent US20240000957A1 (published 2024)
